Experiment [1] relates to FtsZ. The method in brief: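 Cy5-labelled His-tagged FtsA variants (0.5–1 µM) tethered to supported membranes via Tris-NTA lipids, with Tris-NTA density set by mixing SUVs; FRET/FRAP used equimolar Cy3/Cy5 FtsA. FtsZ–FtsA co-treadmilling imaged as dual-colour videos at one frame per 2 s; dynamics and colocalization quantified by automated image subtraction analysis.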
Experiment [2] in a line: Membrane off-binding rate (koff) of FtsA from FRAP. Further details: Off binding rate koff: unit not given here. Conditions: Fig. S4i, summary value. The method in brief: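 Equimolar Cy3- and Cy5-labelled FtsA plus 20% unlabelled FtsA on membrane; a rectangular ROI is bleached with the 641 nm laser and recovery imaged at one or two frames per second. Diffusion coefficient and off-rate are separated by fitting the shape of the recovery profile, using the change in slope at the bleach borders.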

For experiment [3], the system named is FtsZ. The following applies: […] Tris-NTA; p-value 3.86 × 10^−4; three repeats. The method in brief: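 Cy5-labelled His-tagged FtsA (0.5–1 µM) bound to Tris-NTA-containing supported membranes, 20 min, washed; FtsA density set by Tris-NTA fraction. Time-lapse images drift-corrected; colocalization with FtsZ as Pearson's coefficient, FtsZ/FtsA ratio from linear-regression slope of intensity scatterplots.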

B1: FtsA R286W-His6: FtsA R286W (1-405) with amphipathic helix replaced by C-terminal His-tag (protein)
chain: MIKATDRKLVVGLEIGTAKVAALVGEVLPDGMVNIIGVGSCPSRGMDKGGVNDLESVVKCVQRAIDQAELMADCQISSVYLALSGKHISCQNEIGMVPISEEEVTQEDVENVVHTAKSVRVRDEHRVLHVIPQEYAIDYQEGIKNPVGLSGVRMQAKVHLITCHNDMAKNIVKAVERCGLKVDQLIFAGLASSYSVLTEDERELGVCVVDIGGGTMDIAVYTGGALRHTKVIPYAGNVVTSDIAYAFGTPPSDAEAIKVRHGCALGSIVGKDESVEVPSVGGRPPWSLQRQTLAEVIEPRYTELLNLVNEEILQLQEKLRQQGVKHHLAAGIVLTGGAAQIEGLAACAQRVFHTQVRIGAPLNITGLTDYAQEPYYSTAVGLLHYGKESHLNGEAEVEKRVTASV
modifications: Cy3 or Cy5 at the N-terminus in the labelled form (sortagging as for native FtsA); left off: TwinStrep-SUMO, N-terminal, cleaved | 5xGlycine tag, N-terminal, kept | His6, C-terminal, kept
As to B1, the “co-treadmilling with FtsZ, reduction compared to the reversibly membrane-binding protein” value in the experiment with FtsZ [1] ([…] Tris-NTA R286W-His6 vs 0.8 µM R286W) is “about 50%”. Besides, the “PCCdiff His-tagged FtsA/FtsZ” value with FtsZ [1] ([…] Tris-NTA, p-value […] 10^−4 (vs WT-His6), 7.78 × 10^−5 (vs R286W), three repeats) was found to be 0.36 ± 0.02. The “Off binding rate koff” value in experiment [2] (0.10 % Tris-NTA lipids, + FtsZ) was found to be 0.0533; in experiment [2] (0.10 % Tris-NTA lipids, without FtsZ) it was 0.0639; in experiment [2] (0.40 % Tris-NTA lipids, + FtsZ), 0.0309; in experiment [2] (0.40 % Tris-NTA lipids, without FtsZ), 0.0536; in experiment [2] (0.60 % Tris-NTA lipids, + FtsZ), 0.0489; in experiment [2] (0.60 % Tris-NTA lipids, without FtsZ) it was 0.0398. The “Off binding rate koff” value in experiment [2] ([…] Tris-NTA lipids, + FtsZ) turned out to be 0.0386; in experiment [2] ([…] Tris-NTA lipids, without FtsZ), 0.0644. Also, the “PCC His-tagged FtsA/FtsZ” value in the experiment on FtsZ [3] is on record as 0.63 ± 0.02.
